# Source: article PMC10998906
# Tests used:
# Assay in all cases: negative-stain EM
# [1] = target: H1/1 GCN4 (NL09 head, PR8 stalk, GCN4-trimerized) (influenza A virus A/Puerto Rico/8/34/Mount Sinai(H1N1) | influenza A virus A/Netherlands/602/2009(H1N1))
# [2] = target: H5/1 GCN4 (IN05 head, PR8 stalk, GCN4-trimerized) (influenza A virus A/Puerto Rico/8/34/Mount Sinai(H1N1) | influenza A virus A/Indonesia/5/2005(H5N1))
# [3] = target: H1 GCN4 (NL09 HA, GCN4-trimerized) (influenza A virus A/Netherlands/602/2009(H1N1))
# [4] = target: H2/1 GCN4 (SG57 head, PR8 stalk, GCN4-trimerized) (influenza A virus A/Puerto Rico/8/34/Mount Sinai(H1N1) | influenza A virus A/Singapore/1/1957(H2N2))
Substance,stoichiometry N [1],stoichiometry N (Fabs per trimer) [2],stoichiometry N (Fabs per trimer) [3],stoichiometry N (Fabs per trimer) [1],stoichiometry N (Fabs per trimer) [4]
"H1/1 GCN4 (NL09 head, PR8 stalk, GCN4-trimerized) (domain or fragment)",3,,,,
CR9114 Fab,,3,3,3,3
